Data as given in paper PMC10441612.

Target: Noe1-His (Noelin 1 with C-terminal hexa-histidine tag), O88998
Assay: AUC
Conditions: remark: other sources report otherwise

B1: Noe1-His (Noelin 1 with C-terminal hexa-histidine tag), O88998 17-485 (natural protein)
chain: MITNWMSQTLPSLVGLNTTRLSAASGGTLDRSTGVLPTNPEESWQVYSSAQDSEGRCICTVVAPQQTMCSRDARTKQLRQLLEKVQNMSQSIEVLDRRTQRDLQYVEKMENQMKGLETKFKQVEESHKQHLARQFKAIKAKMDELRPLIPVLEEYKADAKLVLQFKEEVQNLTSVLNELQEEIGAYDYDELQSRVSNLEERLRACMQKLACGKLTGISDPVTVKTSGSRFGSWMTDPLAPEGDNRVWYMDGYHNNRFVREYKSMVDFMNTDNFTSHRLPHPWSGTGQVVYNGSIYFNKFQSHIIIRFDLKTEAILKTRSLDYAGYNNMYHYAWGGHSDIDLMVDENGLWAVYATNQNAGNIVISKLDPVSLQILQTWNTSYPKRSAGEAFIICGTLYVTNGYSGGTKVHYAYQTNASTYEYIDIPFQNKYSHISMLDYNPKDRALYAWNNGHQTLYNVTLFHVIRSDEL
modifications: here or on the partner: glycosylated; glycosylated
  stoichiometry N: 4
